In PMC6553528, “An Interaction Network of the Human SEPT9 Established by Quantitative Mass Spectrometry” (G3: Genes|Genomes|Genetics, 2019):

B1: GST-MYO6_(835-1294) (domain or fragment, UniProt Q9UM54 835-1294, looked up)
chain: PRIDGLVKVGTLKKRLDKFNEVVSVLKDGKPEMNKQIKNLEISIDTLMAKIKSTMMTQEQIQKEYDALVKSSEELLSALQKKKQQEEEAERLRRIQEEMEKERKRREEDEKRRRKEEEERRMKLEMEAKRKQEEEERKKREDDEKRIQAEVEAQLARQKEEESQQQAVLEQERRDRELALRIAQSEAELISDEAQADLALRRSLDSYPVSKNDGTRPKMTPEQMAKEMSEFLSRGPAVLATKAAAGTKKYDLSKWKYAELRDTINTSCDIELLAACREEFHRRLKVYHAWKSKNKKRNTETEQRAPKSVTDYDFAPFLNNSPQQNPAAQIPARQREIEMNRQQRFFRIPFIRPADQYKDPQSKKKGWWYAHFDGPWIARQMELHPDKPPILLVAGKDDMEMCELNLEETGLTRKRGAEILPRQFEEIWERCGGIQYLQNAIESRQARPTYATAMLQSLLK
notes: Cloned in pGEX2T; also called C-terminal tail fragment of MYO6; source: E. coli, immobilized on Glutathione Sepharose from the crude extract; not shown: GST, N-terminal, kept
B2: GST-MYO1C_(809-1063) (domain or fragment, human, UniProt O00159 809-1063, looked up)
chain: LDHVRTSFLLNLRRQLPQNVLDTSWPTPPPALREASELLRELCIKNMVWKYCRSISPEWKQQLQQKAVASEIFKGKKDNYPQSVPRLFISTRLGTDEISPRVLQALGSEPIQYAVPVVKYDRKGYKPRSRQLLLTPNAVVIVEDAKVKQRIDYANLTGISVSSLSDSLFVLHVQRADNKQKGDVVLQSDHVIETLTKTALSANRVNSININQGSITFAGGPGRDGTIDFTPGSELLITKAKNGHLAVVAPRLNSR
notes: Unconventional myosin-Ic (MYO1C), C-terminal tail fragment, amino acids 809-1063, amplified from cDNA of 1306 fibroblast mRNA; Cloned in pGEX2T; also called C-terminal tail fragment of MYO1C; source: E. coli, immobilized on Glutathione Sepharose from the crude extract; not shown: GST, N-terminal, kept

Target: T1, 6his-SEPT9 (human, UniProt Q9UHD8 2-586)
T1 construct: SEPT9 isoform 1 (SEPT9_i1), human; PCR amplified from the GFP-SEPT9_i1 plasmid and cloned into the in-house plasmid pES; The forward primer reads ENLYFQG (a TEV site, surmised) followed by KKSYSGG, i.e. SEPT9 from its second codon; the reverse primer ends with PEAPEM and stop codons; also called 6his-tagged SEPT9; 6his tagged SEPT9; source: E. coli, purified (IMAC, approx. 70% purity; desalted …)
T1 sequence (looked up): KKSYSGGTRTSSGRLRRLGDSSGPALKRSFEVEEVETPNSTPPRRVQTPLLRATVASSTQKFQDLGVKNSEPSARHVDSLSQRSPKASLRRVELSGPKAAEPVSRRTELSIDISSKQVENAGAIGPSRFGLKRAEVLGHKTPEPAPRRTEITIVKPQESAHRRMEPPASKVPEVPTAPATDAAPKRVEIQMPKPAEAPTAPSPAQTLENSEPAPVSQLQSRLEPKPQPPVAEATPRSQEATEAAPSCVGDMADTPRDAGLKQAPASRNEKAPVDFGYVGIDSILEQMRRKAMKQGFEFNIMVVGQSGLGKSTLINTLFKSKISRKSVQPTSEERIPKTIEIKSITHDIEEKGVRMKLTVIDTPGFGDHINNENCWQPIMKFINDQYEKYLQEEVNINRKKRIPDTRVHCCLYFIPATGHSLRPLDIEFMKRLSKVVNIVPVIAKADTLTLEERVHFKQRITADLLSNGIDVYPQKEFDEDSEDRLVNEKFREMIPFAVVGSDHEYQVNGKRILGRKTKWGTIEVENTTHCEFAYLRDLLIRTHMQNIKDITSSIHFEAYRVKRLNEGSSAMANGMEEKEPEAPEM
Assay: pull-down; GST fusion proteins immobilized on Glutathione Sepharose from the crude extract, incubated with 2 µM 6his-SEPT9 for 1 h in PBS; Western blot with anti-6his and anti-GST
Settings: both partners purified

Binder | binding result
B1 | binds
B2 | binds
